PMC5697884, “In vitro characterization of the antivirulence target of Gram-positive pathogens, peptidoglycan O-acetyltransferase A (OatA)” (PLoS Pathogens, 2017)

Tested on: CC(=O)Oc1ccc([N+](=O)[O-])cc1
Test: purified protein
Conditions: hydrolysis (esterase) without acceptor, 50 mM sodium phosphate pH 6.5, 5% (v/v) ethanol, 25 °C

SaOatAC (Staphylococcus aureus subsp. aureus NCTC 8325)
Km: 1150 ± 70 µM
kcat: 0.060 ± 0.00078 s⁻¹

SpOatAC (Streptococcus pneumoniae R6)
Km: 56 ± 6.5 µM
kcat: 0.016 ± 0.00039 s⁻¹
